B1: myc-HTR6 [mouse] / EGFP-RABL2B [human] (parent complex)
chain 1: MVPEPGPVNSSTPAWGPGPPPAPGGSGWVAAALCVVIVLTAAANSLLIALICTQPALRNTSNFFLVSLFTSDLMVGLVVMPPAMLNALYGRWVLARGLCLLWTAFDVMCCSASILNLCLISLDRYLLILSPLRYKLRMTAPRALALILGAWSLAALASFLPLLLGWHELGKARTSAPGQCRLLASLPYVLVASGVTFFLPSGAICFTYCRILLAARKQAVQVASLTTGTATAGQALETLQVPRTPRPGMESADSRRLTTKHSRKALKASLTLGILLSMFFVTWLPFFVASIAQAVCDCISPGLFDVLTWLGYCNSTMNPIIYPLFMRDFKRALGRFVPCVHCPPEHRASPASPSMWTSHSGARPGLSLQQVLPLPLPPNSDSDSASGGTSGLQLTAQLLLPGEATRDPPPPTRAPTVVNFFVTDSVEPEIRQHPLGSPMN
chain 2: MAEDKTKPSELDQGKYDADDNVKIICLGDSAVGKSKLMERFLMDGFQPQQLSTYALTLYKHTATVDGRTILVDFWDTAGQERFQSMHASYYHKAHACIMVFDVQRKVTYRNLSTWYTELREFRPEIPCIVVANKIDDINVTQKSFNFAKKFSLPLYFVSAADGTNVVKLFNDAIRLAVSYKQNSQDFMDEIFQELENFSLEQEEEDVPDQEQSSSIETPSEEAASPHS

Variants of: B1
Assay: co-immunoprecipitation (IP anti-EGFP, Western blot anti-Myc), IP/input band quantitation; lysates from HEK293T cells; Input is 2.5% of lysate used for IP; parent: 100

Variant	percent of parent [%]
chain 1 L398A, chain 1 L399A, chain 1 L400A	103

Variants of: B1
Assay: as above
Remark: another data set of the same source

Variant	percent of parent [%]
chain 1 L398A, chain 1 L399A, chain 1 L400A	121
chain 1 R216A, chain 1 K217A, chain 1 Q218A, chain 1 L398A, chain 1 L399A, chain 1 L400A	105
chain 1 R216A, chain 1 K217A, chain 1 Q218A	84
